In experiment [1] the target is HLA-A*1501 (human). Briefly: iTopia affinity.
Experiment [2] has as its target HLA-A*1501 (human). Kind of experiment: iTopia net score.
The target of experiment [3] is HLA-A*0201 (human). Kind of experiment: iTopia affinity.
Experiment [4] has as its target HLA-A*0201 (human). Kind of experiment: iTopia net score.
In experiment [5] the target is HLA-A*0201 (human). Briefly: iTopia binding.

In turn, PSFACLKEL [cdr2 156-164 …] returned an ED50 in the experiment with HLA-A*1501 (human) [1] of 45 µM. This molecule displayed an iScore in the experiment with HLA-A*1501 (human) [2] of 0.072.

LLRQMNEQH [cdr2 72-80 …] registered an ED50 in the experiment with HLA-A*1501 (human) [1] of 68 µM. The molecule also gave an iScore in the experiment with HLA-A*1501 (human) [2] of 0.106.

Turning to YDLRQHFVY [cdr2 165-173 …], the ED50 in the experiment with HLA-A*1501 (human) [1] came to 45 µM. The same molecule came in with an iScore with HLA-A*1501 (human) [2] of 0.098.

Consider QQLGATGAY [cdr2 235-243 …], for which the ED50 in the experiment with HLA-A*1501 (human) [1] was determined as 8.6 µM. The iScore with HLA-A*1501 (human) [2] is 0.255.

As for RQKRVTMEE [cdr2 213-221 …], in the experiment with HLA-A*1501 (human) [1], the ED50 stood at 110 µM. This molecule also returned an iScore in the experiment with HLA-A*1501 (human) [2] of 0.065.

MLQSEHPFV (modifications not checked) [cdr2 260-268 …] gave an ED50 with HLA-A*0201 (human) [3] of 2 µM. Further, in the experiment with HLA-A*0201 (human) [4], the iScore was 0.584. Moreover, the binding vs positive control with HLA-A*0201 (human) [5] is above 30%.

Take MRQMLQSEH [cdr2 257-265 …]: the ED50 with HLA-A*1501 (human) [1] is 170 µM. The iScore with HLA-A*1501 (human) [2] was 0.075.

LQQDLQLAA [cdr2 24-32 …]: the ED50 in the experiment with HLA-A*1501 (human) [1] was 42 µM. In the experiment with HLA-A*1501 (human) [2], this molecule yielded an iScore of 0.09.

These data come from patent US20090208538A1.
